# Measurements taken from article PMC4104756.
# Molecular target: poly-(α,β)-DL-aspartic acid sodium salt
# Assay: turbidity at 600 nm + light microscopy
# Conditions: scale: polyHis:polyAsp
substance,measurement,value
poly-L-histidine (peptide),volume ratio polyHis:polyAsp at maximum turbidity,0.82
